Source: the supplement of paper PMC7125110
± gives the standard error. Fewer inactive variants are shown than the library holds.

B1: glmS ribozyme (parent)
chain: AUAAAAGCGCCAGAACUACAGAAAUGUAGUUGACGAGGAGGAGGUUUAUCGAAUUUUCGGCGGAUGCCUCCAAA

Columns and labels:
Conditions in all cases: with glucosamine-6-phosphate
glucosamine-6-phosphate [1] = variants of: B1; assay: self-cleavage kobs at 640 uM GlcN6P; higher = faster cleavage; RNA array
Procedure, shortened: (§1)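 A hybridised Cy3 probe tracked barcoded ribozyme variants, transcribed in situ by E. coli RNA polymerase on sequenced MiSeq chips, at 37 °C. The variants received 40 μM to 10 mM glucosamine-6-phosphate in HEPES/KCl/Mg(OAc)2 buffer. kobs came from decay fits and kcat and KM from weighted Michaelis–Menten fits.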

glucosamine-6-phosphate [2] = variants of: B1; assay: self-cleavage kobs at 160 uM GlcN6P; higher = faster cleavage; RNA array
Procedure, shortened: as §1

glucosamine-6-phosphate [3] = variants of: B1; assay: self-cleavage kobs at 2500 uM GlcN6P; higher = faster cleavage; RNA array
Procedure, shortened: as §1

glucosamine-6-phosphate [4] = variants of: B1; assay: self-cleavage kobs at 10000 uM GlcN6P; higher = faster cleavage; RNA array
Procedure, shortened: as §1

Row | Variant | self-cleavage kobs at 640 uM GlcN6P (glucosamine-6-phosphate [1]) [s⁻¹] | self-cleavage kobs at 160 uM GlcN6P (glucosamine-6-phosphate [2]) [s⁻¹] | self-cleavage kobs at 2500 uM GlcN6P (glucosamine-6-phosphate [3]) [s⁻¹] | self-cleavage kobs at 10000 uM GlcN6P (glucosamine-6-phosphate [4]) [s⁻¹]
1 | A6G A14G A33U | < 1e-05 |  |  | 
2 | U45C U46C | 0.000335 ± 5.7e-05 | 0.000106 ± 3e-05 | 0.00111 ± 0.00037 | 
3 | A42C G44A U49C | < 1e-05 | < 1e-05 | < 1e-05 | 
4 | G51C G59A | < 1e-05 | < 1e-05 | < 1e-05 | 
5 | G41U G51A | < 1e-05 | < 1e-05 | < 1e-05 | < 1e-05
6 | A6C A14G A36G A52C | < 1e-05 |  | < 1e-05 | 
7 | G43C U55A A64U |  | < 1e-05 |  | 
8 | G44U C61A C67U C70G | < 1e-05 | < 1e-05 | < 1e-05 | 
9 | A6C C10A C34G C50U U56A | < 1e-05 |  | < 1e-05 | 
10 | C58A G59C | < 1e-05 | < 1e-05 |  | < 1e-05
11 | G41C A52C G60A G63A G66A C68U | < 1e-05 | < 1e-05 |  | 
12 | A6G G9U C58A | < 1e-05 |  | < 1e-05 | < 1e-05
13 | C61G G62A C67U C68A | 4.43e-05 ± 1.5e-05 | 0.000136 ± 2.6e-05 | 0.000107 ± 2.2e-05 | 
14 | A42C C61U | < 1e-05 | < 1e-05 | < 1e-05 | 
15 | G43A U45A C61G | < 1e-05 | < 1e-05 |  | 
16 | A48G A52C U55C | < 1e-05 | < 1e-05 |  | 
17 | A6C U30A C67G | < 1e-05 |  |  | 
18 | G38U A42G | < 1e-05 | < 1e-05 |  | 
19 | G38U A42U | < 1e-05 | < 1e-05 |  | < 1e-05
20 | G41U U69G | < 1e-05 | < 1e-05 | < 1e-05 | < 1e-05
21 | G40C A53U C70U | 9.65e-05 ± 2.1e-05 | 9.81e-05 ± 3.6e-05 | 0.000268 ± 5.4e-05 | 
22 | A39C G44U U46C G60U G63C C68A C71A | < 1e-05 | < 1e-05 | < 1e-05 | 
23 | U57G G62C A64U |  | < 1e-05 | < 1e-05 | < 1e-05
24 | A48U G51U |  | < 1e-05 | < 1e-05 | 
25 | U46G U49A | < 1e-05 | < 1e-05 | < 1e-05 | < 1e-05
26 | A6G C11U G51U | < 1e-05 |  |  | 

Row | Variant | self-cleavage kobs at 640 uM GlcN6P (glucosamine-6-phosphate [1]) [s⁻¹] | self-cleavage kobs at 160 uM GlcN6P (glucosamine-6-phosphate [2]) [s⁻¹] | self-cleavage kobs at 2500 uM GlcN6P (glucosamine-6-phosphate [3]) [s⁻¹] | self-cleavage kobs at 10000 uM GlcN6P (glucosamine-6-phosphate [4]) [s⁻¹]
27 | G38U G41C G59C | < 1e-05 | < 1e-05 |  | 
28 | G44A U49A | < 1e-05 | < 1e-05 | < 1e-05 | < 1e-05
29 | A6C G7A G29A C71U | < 1e-05 |  | < 1e-05 | 
30 | A42G C50G A64G |  | < 1e-05 |  | 
31 | G40C G44A A53C | < 1e-05 | < 1e-05 | < 1e-05 | 
32 | A6C A36C U56G | < 1e-05 |  | < 1e-05 | 
33 | U56C U57G C58A |  | 0.00183 ± 0.0009 |  | 
34 | U45G C61A | < 1e-05 | < 1e-05 | < 1e-05 | < 1e-05
35 | G41A G60C | < 1e-05 | < 1e-05 |  | < 1e-05
36 | G38C G63A | < 1e-05 | < 1e-05 | < 1e-05 | 
37 | G44U C58A C71A | < 1e-05 | < 1e-05 | < 1e-05 | 
38 | A6G A42C C58U | < 1e-05 |  | < 1e-05 | 
39 | G60U A64C G66U C70A |  | < 1e-05 |  | 
40 | A6G G32U C61A | < 1e-05 |  | < 1e-05 | 
41 | A6C A53U C58U | < 1e-05 |  | < 1e-05 | 
42 | A39C G51C U55A |  | < 1e-05 | < 1e-05 | 
43 | A6C G13C U47G A48U U65A | < 1e-05 |  |  | 
44 | G41A U55G C71A | 8.59e-05 ± 2.3e-05 | 5.4e-05 ± 1.6e-05 | 0.000196 ± 3.5e-05 | 
45 | G38A C61U C70G |  | < 1e-05 |  | 
46 | U55C C61U G63U | < 1e-05 | < 1e-05 | < 1e-05 | 
47 | G37A U49C | < 1e-05 | < 1e-05 | < 1e-05 | < 1e-05
48 | G43C C67U |  | < 1e-05 | < 1e-05 | 
49 | C58G U69A | 0.000406 ± 9.6e-05 | 5.46e-05 ± 2.7e-05 |  | 
50 | G38A G40A U49G G60U | < 1e-05 | < 1e-05 | < 1e-05 | 
51 | A6C U47C U54G | < 1e-05 |  |  | 
